B1: rhIL-12RB2-Fc (Fc fusion, human, UniProt Q99665 24-622, looked up, not shown: a dimerising Fc or GST)
chain: KIDACKRGDVTVKPSHVILLGSTVNITCSLKPRQGCFHYSRRNKLILYKFDRRINFHHGHSLNSQVTGLPLGTTLFVCKLACINSDEIQICGAEIFVGVAPEQPQNLSCIQKGEQGTVACTWERGRDTHLYTEYTLQLSGPKNLTWQKQCKDIYCDYLDFGINLTPESPESNFTAKVTAVNSLGSSSSLPSTFTFLDIVRPLPPWDIRIKFQKASVSRCTLYWRDEGLVLLNRLRYRPSNSRLWNMVNVTKAKGRHDLLDLKPFTEYEFQISSKLHLYKGSWSDWSESLRAQTPEEEPTGMLDVWYMKRHIDYSRQQISLFWKNLSVSEARGKILHYQVTLQELTGGKAMTQNITGHTSWTTVIPRTGNWAVAVSAANSKGSSLPTRINIMNLCEAGLLAPRQVSANSEGMDNILVTWQPPRKDPSAVQEYVVEWRELHPGGDTQVPLNWLRSRPYNVSALISENIKSYICYEIRVYALSGDQGGCSSILGNSKHKAPLSGPHINAITEEKGSILISWNSIPVQEQMGCLLHYRIYWKERDSNSQPQLCEIPYRVSQNSHPINSLQPRVTYVLWMTALTAAGESSHGNEREFCLQGKAN

Key:
rhIL-12RB2-Fc = target: B1; experiment: SPR, IL-12 receptor immobilised, IL-12 flowed, 25 C, FIGS. 35A-35D
Protocol: (§1) Sensor Chips were coated and immobilized with IL-12 receptors. Dilutions of IL-12 constructs were flowed over the chips with the immobilized IL-12 receptors to determine the on rate at 25 degrees C. At equilibrium (approximately 3-4 minutes), the flow buffer was changed to PBST, to determine the off rates over 6 minutes. Between each run the chip was regenerated. The tables represent the SPR data (FIGS. 34 and 35).

rhIL-12RB1-Fc = rhIL-12RB1-Fc (human, UniProt P42701 24-545, limits assumed); experiment: SPR, IL-12 receptor immobilised, IL-12 flowed, 25 C, FIGS. 34A-34D
Protocol: as §1

AK384 = target: T1, AK384; experiment: SPR, IL-12 receptor immobilised, IL-12 construct flowed, 25 C, FIGS. 35A-35D
T1 construct: Masked IL-12 heterodimer, IL-12Rβ1 (24-237) mask; tested uncleaved
Protocol: as §1

Row | binding result (rhIL-12RB2-Fc) | binding result (rhIL-12RB1-Fc) | binding result (AK384) | Binder
1 | binds | binds | – | recombinant human IL-12 (rhIL-12) control (ligand, also called wild-type rhIL-12) chain 1: IWELKKDVYVVELDWYPDAPGEMVVLTCDTPEEDGITWTLDQSSEVLGSGKTLTIQVKEFGDAGQYTCHKGGEVLSHSLLLLHKKEDGIWSTDILKDQKEPKNKTFLRCEAKNYSGRFTCWWLTTISTDLTFSVKSSRGSSDPQGVTCGAATLSAERVRGDNKEYEYSVECQEDSACPAAEESLPIEVMVDAVHKLKYENYTSSFFIRDIIKPDPPKNLQLKPLKNSRQVEVSWEYPDTWSTPHSYFSLTFCVQVQGKSKREKKDRVFTDKTSATVICRKNASISVRAQDRYYSSSWSEWASVPCS chain 2: RNLPVATPDPGMFPCLHHSQNLLRAVSNMLQKARQTLEFYPCTSEEIDHEDITKDKTSTVEACLPLELTKNESCLNSRETSFITNGSCLASRKTSFMMALCLSSIYEDLKMYQVEFKTMNAKLLMDPKRQIFLDQNMLAVIDELMQALNFNSETVPQKSSLEEPDFYKTKIKLCILLHAFRIRAVTIDRVMSYLNAS
2 | – | – | binds | B1

— US20230159603A1 (XILIO DEVELOPMENT, published 2023)
